According to patent publication US20140248360A1, “NANOPARTICLE TUMOUR VACCINES” (MIDATECH LIMITED, priority 2011, published 2014):

Key:
[1] = molecular target: SIINFEKL:K^b complex (SIINFEKL complexed to H-2K^b) on LK^b cells (murine) (UniProt P01901); assay: cell-based or functional assay
[2] = Aggregation and solubility of nanoparticle preparations; assay type: physicochemical; details: for NP formed in repeat production: 75% methanol not 95% in the synthesis stage
Protocol: Samples were bench spun the supernatant removed and the dark pellet dissolved in 2 ml water, and then transferred to a 10 kDa vivaspin for a total of 4 times 2 ml water washes each of 8 min at 5 Krpm. Nanoparticles (NPs) were removed from the vivaspins and made up to 500 μl with water, they were then subjected to 15 Krpm bench spin to remove any large aggregates.
NP's 2-5 were produced by a variation using 75% methanol not 95% in the synthesis stage.

Sequence of UniProt P01901 (P01901 22-369 limits assumed, one chain of several): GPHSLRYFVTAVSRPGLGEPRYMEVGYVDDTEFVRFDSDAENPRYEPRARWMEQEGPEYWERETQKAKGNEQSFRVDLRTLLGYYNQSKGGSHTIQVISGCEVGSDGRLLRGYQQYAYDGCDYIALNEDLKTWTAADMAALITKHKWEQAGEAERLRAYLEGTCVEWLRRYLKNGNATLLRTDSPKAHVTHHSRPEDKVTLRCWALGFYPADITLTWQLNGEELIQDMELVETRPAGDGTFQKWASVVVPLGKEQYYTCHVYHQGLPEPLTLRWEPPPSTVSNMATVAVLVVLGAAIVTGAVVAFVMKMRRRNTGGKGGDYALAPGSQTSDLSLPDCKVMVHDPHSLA

Substance	β-galactosidase measured using a luminescent substrate (B3Z activation); limit of detection as SIINFEKL pulse concentration [1]	NP formed in repeat production [2]	solubility of NP aggregates in NaOH ([2]; 300 mM NaOH)	aggregation of NP after synthesis ([2]; first production, after 15 Krpm bench spin)	solubility of NP aggregates ([2]; water, 10% acetic acid, PBS, DMSO or DMF)
T cell receptor of the SIINFEKL:Kb-specific T hybridoma B3Z (TCR)	5 ng/mL				
NP 2: gold nanoparticle, GlcC2 corona, peptide ligand SIINFEKL-N-(CH2)2-SH		‘normal’ NP			
NP 3: gold nanoparticle, GlcC2 corona, peptide ligand FLSIINFEKL-N-(CH2)2-SH		formed aggregates	total NP solubilisation	large near complete aggregation	not soluble
